This is an account of results in paper PMC8753184.

This series in a line: preparative SEC and analytical FSEC homogeneity. As to conditions: glycan lost; control: mG6PC1-WT.

B1: mouse glucose-6-phosphatase catalytic subunit 1 (mG6PC1): N96A (protein)
parent chain: MEEGMNILHDFGIQSTRYLQVNYQDSQDWFILVSVIADLRNAFYVLFPIWFHLKETVGINLLWVAVVGDWFNLVFKWILFGQRPYWWVLDTDYYSNSSVPIIKQFPVTCETGPGSPSGHAMGAAGVYYVMVTSTLAIFRGKKKPTYGFRCLNVILWLGFWAVQLNVCLSRIYLAAHFPHQVVAGVLSGIAVAETFSHIRGIYNASLRKYCLITIFLFGFALGFYLLLKGLGVDLLWTLEKAKRWCERPEWVHLDTTPFASLFKNLGTLLGLGLALNSSMYRKSCKGELSKLLPFRFACIVASLVLLHLFDSLKPPSQVELIFYILSFCKSATVPFASVSLIPYCLARILGQTHKKSL
In the case of B1, the stability_or_folding entry is listed as “no change”.
